# Laboratory results from US20200317768A1 (published 2020).
# Where a chain is given by its changes, count along the chain named.
# T1: human FcγRIIb extracellular domain, C-terminal His-tag (human, UniProt P31994 43-217)
# T1 construct: also called FcgRIIb (human); not shown: His-tag added to C-terminus
# T1 sequence: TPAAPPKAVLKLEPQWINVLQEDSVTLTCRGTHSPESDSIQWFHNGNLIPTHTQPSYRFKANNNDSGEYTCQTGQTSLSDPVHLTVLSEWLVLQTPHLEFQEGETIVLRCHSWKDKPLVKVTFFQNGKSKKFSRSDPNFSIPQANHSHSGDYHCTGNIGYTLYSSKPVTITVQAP
# B1: M103205H795-MY213/M103202L889-SK1 (antibody, human IgG1, kappa)
# heavy: QVTLKESGPVLVKPTETLTLTCTVSGIDLSHDDISWVRQAPGKGLEWVGIISYAGSTYYASWAKGRLTISKDTSKNQVVLTMTNMDPVDTATYYCARGVPAYSHGGDLWGQGTLVTVSSASTKGPSVFPLAPSSKSTSGGTAALGCLVKDYFPEPVTVSWNSGALTSGVHTFPAVLQSSGLYSLSSVVTVPSSSLGTQTYICNVNHKPSNTKVDKKVEPKSCDKTHTCPPCPAPELLNGPSVFLFPPKPKDTLMISRTPEVTCVVVDVSDEDPEVKFNWYVDGVEVHNAKTKPREEQYNSTYRVVSVLTVLHQDWLNGKEYKCKVSNKALPKPIEKTISKAKGQPREPQVYTLPPSREEMTKNQVSLTCLVKGFYPSDIAVEWESNGQPENNYKTTPKVLDSDGSFFLYSKLTVDKSRWQQGNVFSCSVMHEALHNHYTQKSLSLSP
# light: DIVMTQSPATLSLSPGERATLSCTSSQSVYHANWLSWFQQKPGQPPKLLIYWASTLAYGVPSRFSGSGSGTDFTLTISSLQPEDAATYYCAGGYGGGRYAFGQGTKVEIKRTVAAPSVFIFPPSDEQLKSGTASVVCLLNNFYPREAKVQWKVDNALQSGNSQESVTEQDSKDSTYSLSSTLTLSKADYEKHKVYACEVTHQGLSSPVTKSFNRGEC
# B2: M103205H795-MY229/M103202L889-SK1 (antibody, human IgG1, kappa)
# heavy: B1 heavy with N238G, G239Y, Q297L
# light: B1 light
# B3: M103205H795-MY227/M103202L889-SK1 (antibody, human IgG1, kappa)
# heavy: B1 heavy with N238G, G239Y
# light: B1 light
# B4: M103205H795-MY274/M103202L889-SK1 (antibody, human IgG1, kappa)
# heavy: B1 heavy with N238T
# light: B1 light
# B5: M103205H795-MY321/M103202L889-SK1 (antibody, human IgG1, kappa)
# heavy: B1 heavy with N238H, K398M
# light: B1 light
# B6: M103205H795-MY279/M103202L889-SK1 (antibody, human IgG1, kappa)
# heavy: B1 heavy with N238H, Q297L, K398P
# light: B1 light
# B7: M103205H795-MY228/M103202L889-SK1 (antibody, human IgG1, kappa)
# heavy: B1 heavy with N238G, G239Y, Q297L, K398P
# light: B1 light
# B8: M103205H795-MY269/M103202L889-SK1 (antibody, human IgG1, kappa)
# heavy: B1 heavy with N238M
# light: B1 light
# B9: M103205H795-MY292/M103202L889-SK1 (antibody, human IgG1, kappa)
# heavy: B1 heavy with N238G, G239Y, Q297L, K398M
# light: B1 light
# B10: M103205H795-MY308/M103202L889-SK1 (antibody, human IgG1, kappa)
# heavy: B1 heavy with N238T, D270E, K398P
# light: B1 light
# B11: M103205H795-MY271/M103202L889-SK1 (antibody, human IgG1, kappa)
# heavy: B1 heavy with N238V
# light: B1 light
# B12: M103205H795-MY278/M103202L889-SK1 (antibody, human IgG1, kappa)
# heavy: B1 heavy with N238M, Q297L, K398P
# light: B1 light
# B13: M103205H795-MY312/M103202L889-SK1 (antibody, human IgG1, kappa)
# heavy: B1 heavy with N238T, D270E, K328T, K398M
# light: B1 light
# B14: M103205H795-MY272/M103202L889-SK1 (antibody, human IgG1, kappa)
# heavy: B1 heavy with N238Q
# light: B1 light
# B15: M103205H795-MY281/M103202L889-SK1 (antibody, human IgG1, kappa)
# heavy: B1 heavy with N238Q, Q297L, K398P
# light: B1 light
# B16: M103205H795-MY311/M103202L889-SK1 (antibody, human IgG1, kappa)
# heavy: B1 heavy with N238T, D270E, Q297L, K398P
# light: B1 light
# B17: M103205H795-MY276/M103202L889-SK1 (antibody, human IgG1, kappa)
# heavy: B1 heavy with N238I
# light: B1 light
# B18: M103205H795-MY242/M103202L889-SK1 (antibody, human IgG1, kappa)
# heavy: B1 heavy with N238G, P240I
# light: B1 light
# B19: M103205H795-MY310/M103202L889-SK1 (antibody, human IgG1, kappa)
# heavy: B1 heavy with N238T, D270E, K328T, K398P
# light: B1 light
# B20: M103205H795-MY293/M103202L889-SK1 (antibody, human IgG1, kappa)
# heavy: B1 heavy with N238G, G239Y, D270E, Q297L
# light: B1 light
# B21: M103205H795-MY273/M103202L889-SK1 (antibody, human IgG1, kappa)
# heavy: B1 heavy with N238L
# light: B1 light
# B22: M103205H795-MY309/M103202L889-SK1 (antibody, human IgG1, kappa)
# heavy: B1 heavy with N238T, D270E, K398M
# light: B1 light
# B23: M103205H795-MY219/M103202L889-SK1 (antibody, human IgG1, kappa)
# heavy: B1 heavy with N238G, G239Y, K398P
# light: B1 light
# B24: M103205H795-MY270/M103202L889-SK1 (antibody, human IgG1, kappa)
# heavy: B1 heavy with N238H
# light: B1 light
# B25: M103205H795-MY280/M103202L889-SK1 (antibody, human IgG1, kappa)
# heavy: B1 heavy with N238V, Q297L, K398P
# light: B1 light
# B26: M103205H795-MY318/M103202L889-SK1 (antibody, human IgG1, kappa)
# heavy: B1 heavy with N238L, D270E, K328T, K398M
# light: B1 light
# Target: T1, human FcγRIIb extracellular domain, …
# Experiment: SPR (Biacore), KD of SG1 / KD of variant;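 further: relative to parent M103205H795-SG1 carrying the SG1 human heavy chain constant region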
row,KD fold (SG1 = 1) [fold],Binder
1,12.8,B1
2,30.7,B2
3,35.4,B3
4,4.8,B4
5,1.8,B5
6,1,B6
7,15.3,B7
8,2.2,B8
9,32.9,B9
10,1.1,B10
11,2.2,B11
12,1,B12
13,4.2,B13
14,3.5,B14
15,2.6,B15
16,2.2,B16
17,1.9,B17
18,2.4,B18
19,1.6,B19
20,30.7,B20
21,0.9,B21
22,2.9,B22
23,13.5,B23
24,1.3,B24
25,1.6,B25
26,1,B26
